The values below come from US20230406935A1 (F STAR THERAPEUTICS, published 2023).

Assay [1] addresses T1, Human PD-L1 expressed on cells (human, UniProt Q9NZQ7 19-290). The assay can be described thus: cell-based or functional assay.
For assay [2], the target named is T1, Human PD-L1 expressed on cells. The assay can be described thus: flow cytometry, HEK293 cells overexpressing the target, anti-human Fc 488. The method, then:
(§1) Cell binding assays were performed by incubating Fcabs or mAb² proteins with either control HEK293 cells or HEK293 cells overexpressing hPD-L1 or cynomolgus PD-L1 cells for 1 hour at 4° C. Fcab/mAb binding was subsequently detected using an anti-human Fc 488 detection antibody. Fluorescent signal intensities were measured using a FACS canto.

For assay [3], the target named is T2, Cynomolgus PD-L1 expressed on HEK 293 cells (cynomolgus, UniProt Q9NZQ7 19-290 (human entry)).
T2 construct: also called cell-expressed cynomolgus PD-L1
The description is as above. The method, then:
as §1

In assay [4] the target is T3, Monomeric His-tagged human PD-L1 (Acro biosystems PD1-H5229) (human, UniProt Q9NZQ7 19-238).
T3 construct: also called hPD-L1-his; PD-L1-his
The assay can be described thus: off-rate, binding to hPD-L1, mock mAb^2; instrument not stated.

The target in assay [5] is T3, Monomeric His-tagged human PD-L1 (Acro …). The assay can be described thus: SPR Biacore T200, mAb^2 captured by anti-Fab on CM5, monomeric antigen in flow, 1:1 fit.
Assay [6] concerns the target T4, Monomeric cynomolgus PD-L1 (Acro Biosciences PD1-C52H4) (cynomolgus, UniProt Q9NZQ7 19-238 (human entry)).
T4 construct: also called cynomolgus monomeric PD-L1
The assay is described as above.

In assay [7] the target is T1, Human PD-L1 expressed on cells. Description: cell-based or functional assay. This is another data set of the same source.
In assay [8] the target is T3, Monomeric His-tagged human PD-L1 (Acro …). Description: off-rate on PD-L1, mock mAb^2; instrument not given.

T1 sequence (Q9NZQ7 19-290 limits assumed): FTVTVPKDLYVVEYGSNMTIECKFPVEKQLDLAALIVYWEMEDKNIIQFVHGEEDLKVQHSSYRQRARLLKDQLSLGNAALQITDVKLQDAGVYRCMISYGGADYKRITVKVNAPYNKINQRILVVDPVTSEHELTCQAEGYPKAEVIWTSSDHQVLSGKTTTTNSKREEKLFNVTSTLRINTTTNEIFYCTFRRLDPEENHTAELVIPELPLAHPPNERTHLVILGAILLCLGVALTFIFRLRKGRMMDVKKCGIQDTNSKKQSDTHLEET
T3 sequence (Q9NZQ7 19-238 limits assumed): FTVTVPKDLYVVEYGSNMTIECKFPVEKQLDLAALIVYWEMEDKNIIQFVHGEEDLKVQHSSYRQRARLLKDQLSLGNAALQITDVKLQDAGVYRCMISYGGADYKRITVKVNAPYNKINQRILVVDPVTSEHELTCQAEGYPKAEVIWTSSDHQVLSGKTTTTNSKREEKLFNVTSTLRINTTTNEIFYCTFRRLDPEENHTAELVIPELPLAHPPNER
T2 sequence (Q9NZQ7 other isoform, or with tags, fused parts or gaps limits assumed): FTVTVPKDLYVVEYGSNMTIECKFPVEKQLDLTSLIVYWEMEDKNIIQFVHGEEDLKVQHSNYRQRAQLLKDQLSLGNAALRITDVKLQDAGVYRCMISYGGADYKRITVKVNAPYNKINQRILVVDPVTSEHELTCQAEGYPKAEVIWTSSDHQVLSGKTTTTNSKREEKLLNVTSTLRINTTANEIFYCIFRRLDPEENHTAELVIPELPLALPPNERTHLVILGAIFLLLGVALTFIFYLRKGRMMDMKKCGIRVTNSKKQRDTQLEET
T4 sequence (Q9NZQ7 other isoform, or with tags, fused parts or gaps limits assumed): as the sequence (Q9NZQ7 19-238 limits assumed) above, with A33T, A34S, S62N, R68Q, Q82R, F173L, T185A, T192I, H215L counted along it

B1: FS17-33-289AA/HelD1.3 mock mAb^2 (bispecific antibody, human IgG1, kappa, L234A L235A)
heavy: QVQLQESGPGLVRPSQTLSLTCTVSGSTFSGYGVNWVRQPPGRGLEWIGMIWGDGNTDYNSALKSRVTMLVDTSKNQFSLRLSSVTAADTAVYYCARERDYRLDYWGQGSLVTVSSASTKGPSVFPLAPSSKSTSGGTAALGCLVKDYFPEPVTVSWNSGALTSGVHTFPAVLQSSGLYSLSSVVTVPSSSLGTQTYICNVNHKPSNTKVDKKVEPKSCDKTHTCPPCPAPEAAGGPSVFLFPPKPKDTLMISRTPEVTCVVVDVSHEDPEVKFNWYVDGVEVHNAKTKPREEQYNSTYRVVSVLTVLHQDWLNGKEYKCKVSNKALPAPIEKTISKAKGQPREPQVYTLPPSRDESGYWVSLTCLVKGFYPSDIVVEWESNGEPQYWAKTTPPVLDSDGSFFLYSKLTVSNWRWQLDDFSCSVMHEALHNHYTQKSLSLSPGK
light: DIQMTQSPASLSASVGETVTITCRASGNIHNYLAWYQQKQGKSPQLLVYNAKTLADGVPSRFSGSGSGTQYSLKINSLQPEDFGSYYCQHFWSTPRTFGGGTKLEIKRTVAAPSVFIFPPSDEQLKSGTASVVCLLNNFYPREAKVQWKVDNALQSGNSQESVTEQDSKDSTYSLSSTLTLSKADYEKHKVYACEVTHQGLSSPVTKSFNRGEC
notes: also called F17-33-289AA/HelD1.3; F17-33-289AA/HELD1.3
In the case of B1, the “DO11.10 T cell activation assay EC50” value in assay [1] was 1.55 nM. The results for the Kd in assay [2] and in assay [3] were 3.9 nM and 2.2 nM, respectively.

B2: FS17-33-449AA/HelD1.3 mock mAb^2 (bispecific antibody, human IgG1, kappa, L234A L235A)
heavy: QVQLQESGPGLVRPSQTLSLTCTVSGSTFSGYGVNWVRQPPGRGLEWIGMIWGDGNTDYNSALKSRVTMLVDTSKNQFSLRLSSVTAADTAVYYCARERDYRLDYWGQGSLVTVSSASTKGPSVFPLAPSSKSTSGGTAALGCLVKDYFPEPVTVSWNSGALTSGVHTFPAVLQSSGLYSLSSVVTVPSSSLGTQTYICNVNHKPSNTKVDKKVEPKSCDKTHTCPPCPAPEAAGGPSVFLFPPKPKDTLMISRTPEVTCVVVDVSHEDPEVKFNWYVDGVEVHNAKTKPREEQYNSTYRVVSVLTVLHQDWLNGKEYKCKVSNKALPAPIEKTISKAKGQPREPQVYTLPPSRDETGYWVSLTCLVKGFYPSDIAVEWESNGEPQYWAKTTPPVLDSDGSFFLYSKLTVSNWRWQLDDVFSCSVMHEALHNHYTQKSLSLSPGK
light: DIQMTQSPASLSASVGETVTITCRASGNIHNYLAWYQQKQGKSPQLLVYNAKTLADGVPSRFSGSGSGTQYSLKINSLQPEDFGSYYCQHFWSTPRTFGGGTKLEIKRTVAAPSVFIFPPSDEQLKSGTASVVCLLNNFYPREAKVQWKVDNALQSGNSQESVTEQDSKDSTYSLSSTLTLSKADYEKHKVYACEVTHQGLSSPVTKSFNRGEC
Consider B2, for which the “DO11.10 T cell activation assay EC50” value in assay [1] worked out at 0.95 nM. Moreover, the koff in assay [4] is 0.000311 s⁻¹. In addition, the dissociation constant Kd in assay [5] is 0.49 nM; in assay [6] it was 0.9 nM.

B3: FS17-33-288AA/HelD1.3 mock mAb^2 (bispecific antibody, human IgG1, kappa, L234A L235A)
heavy: QVQLQESGPGLVRPSQTLSLTCTVSGSTFSGYGVNWVRQPPGRGLEWIGMIWGDGNTDYNSALKSRVTMLVDTSKNQFSLRLSSVTAADTAVYYCARERDYRLDYWGQGSLVTVSSASTKGPSVFPLAPSSKSTSGGTAALGCLVKDYFPEPVTVSWNSGALTSGVHTFPAVLQSSGLYSLSSVVTVPSSSLGTQTYICNVNHKPSNTKVDKKVEPKSCDKTHTCPPCPAPEAAGGPSVFLFPPKPKDTLMISRTPEVTCVVVDVSHEDPEVKFNWYVDGVEVHNAKTKPREEQYNSTYRVVSVLTVLHQDWLNGKEYKCKVSNKALPAPIEKTISKAKGQPREPQVYTLPPSRDESGYWVSLTCLVKGFYPSDIVVEWESNGEPQYWAKTTPPVLDSDGSFFLYSKLTVSNWRWQIDDFSCSVMHEALHNHYTQKSLSLSPGK
light: DIQMTQSPASLSASVGETVTITCRASGNIHNYLAWYQQKQGKSPQLLVYNAKTLADGVPSRFSGSGSGTQYSLKINSLQPEDFGSYYCQHFWSTPRTFGGGTKLEIKRTVAAPSVFIFPPSDEQLKSGTASVVCLLNNFYPREAKVQWKVDNALQSGNSQESVTEQDSKDSTYSLSSTLTLSKADYEKHKVYACEVTHQGLSSPVTKSFNRGEC
notes: also called F17-33-288AA/HelD1.3; F17-33-288AA/HELD1.3
Turning to B3, the “DO11.10 T cell activation assay EC50” value in assay [1] was 0.428 nM. In addition, the Kd was determined as 15.2 nM in assay [2], 7.8 nM in assay [3], 1.43 nM in assay [5] and 2 nM in assay [6].

B4: FS17-33-334AA/HelD1.3 mock mAb^2 (bispecific antibody, human IgG1, kappa, L234A L235A)
heavy: QVQLQESGPGLVRPSQTLSLTCTVSGSTFSGYGVNWVRQPPGRGLEWIGMIWGDGNTDYNSALKSRVTMLVDTSKNQFSLRLSSVTAADTAVYYCARERDYRLDYWGQGSLVTVSSASTKGPSVFPLAPSSKSTSGGTAALGCLVKDYFPEPVTVSWNSGALTSGVHTFPAVLQSSGLYSLSSVVTVPSSSLGTQTYICNVNHKPSNTKVDKKVEPKSCDKTHTCPPCPAPEAAGGPSVFLFPPKPKDTLMISRTPEVTCVVVDVSHEDPEVKFNWYVDGVEVHNAKTKPREEQYNSTYRVVSVLTVLHQDWLNGKEYKCKVSNKALPAPIEKTISKAKGQPREPQVYTLPPSRDESGYWVSLTCLVKGFYPSDIAVEWESNGEPQYWAKTTPPVLDSDGSFFLYSKLTVSNWRWQLDDFSCSVMHEALHNHYTQKSLSLSPGK
light: DIQMTQSPASLSASVGETVTITCRASGNIHNYLAWYQQKQGKSPQLLVYNAKTLADGVPSRFSGSGSGTQYSLKINSLQPEDFGSYYCQHFWSTPRTFGGGTKLEIKRTVAAPSVFIFPPSDEQLKSGTASVVCLLNNFYPREAKVQWKVDNALQSGNSQESVTEQDSKDSTYSLSSTLTLSKADYEKHKVYACEVTHQGLSSPVTKSFNRGEC
In the case of B4, the “DO11.10 EC50” value in assay [7] worked out at 0.403 nM. Further, the “DO11.10 T cell activation assay EC50” value in assay [1] turned out to be 0.934 nM. Also, the results for the koff in assay [4] and in assay [8] were 0.000291 s⁻¹ and 0.000372 s⁻¹, respectively. For the same molecule, the Kd in assay [2] turned out to be 8.9 nM; in assay [3], 0.91 nM; in assay [5] it was 1.45 nM; in assay [6], 1.9 nM.

B5: FS17-33-451AA/HelD1.3 mock mAb^2 (bispecific antibody, human IgG1, kappa, L234A L235A)
heavy: QVQLQESGPGLVRPSQTLSLTCTVSGSTFSGYGVNWVRQPPGRGLEWIGMIWGDGNTDYNSALKSRVTMLVDTSKNQFSLRLSSVTAADTAVYYCARERDYRLDYWGQGSLVTVSSASTKGPSVFPLAPSSKSTSGGTAALGCLVKDYFPEPVTVSWNSGALTSGVHTFPAVLQSSGLYSLSSVVTVPSSSLGTQTYICNVNHKPSNTKVDKKVEPKSCDKTHTCPPCPAPEAAGGPSVFLFPPKPKDTLMISRTPEVTCVVVDVSHEDPEVKFNWYVDGVEVHNAKTKPREEQYNSTYRVVSVLTVLHQDWLNGKEYKCKVSNKALPAPIEKTISKAKGQPREPQVYTLPPSRDEEGYWVSLTCLVKGFYPSDIAVEWESNGEPQYWAKTTPPVLDSDGSFFLYSKLTVSNWRWQLDDVFSCSVMHEALHNHYTQKSLSLSPGK
light: DIQMTQSPASLSASVGETVTITCRASGNIHNYLAWYQQKQGKSPQLLVYNAKTLADGVPSRFSGSGSGTQYSLKINSLQPEDFGSYYCQHFWSTPRTFGGGTKLEIKRTVAAPSVFIFPPSDEQLKSGTASVVCLLNNFYPREAKVQWKVDNALQSGNSQESVTEQDSKDSTYSLSSTLTLSKADYEKHKVYACEVTHQGLSSPVTKSFNRGEC
notes: also called F17-33-451AA/HelD1.3; F17-33-451AA/HELD1.3
For B5, the “DO11.10 T cell activation assay EC50” value in assay [1] was determined as 1.03 nM. For the same molecule, in assay [4], the koff came out at 0.000253 s⁻¹. For the same molecule, the equilibrium dissociation constant (Kd) is 0.45 nM in assay [5] and 0.63 nM in assay [6].

B6: FS17-33-296AA/HelD1.3 mock mAb^2 (bispecific antibody, human IgG1, kappa, L234A L235A)
heavy: QVQLQESGPGLVRPSQTLSLTCTVSGSTFSGYGVNWVRQPPGRGLEWIGMIWGDGNTDYNSALKSRVTMLVDTSKNQFSLRLSSVTAADTAVYYCARERDYRLDYWGQGSLVTVSSASTKGPSVFPLAPSSKSTSGGTAALGCLVKDYFPEPVTVSWNSGALTSGVHTFPAVLQSSGLYSLSSVVTVPSSSLGTQTYICNVNHKPSNTKVDKKVEPKSCDKTHTCPPCPAPEAAGGPSVFLFPPKPKDTLMISRTPEVTCVVVDVSHEDPEVKFNWYVDGVEVHNAKTKPREEQYNSTYRVVSVLTVLHQDWLNGKEYKCKVSNKALPAPIEKTISKAKGQPREPQVYTLPPSRDESGYWVSLTCLVKGFYPSDIVVEWESNGEPQYWAKTTPPVLDSDGSFFLYSKLTVSNWRWQVDDFSCSVMHEALHNHYTQKSLSLSPGK
light: DIQMTQSPASLSASVGETVTITCRASGNIHNYLAWYQQKQGKSPQLLVYNAKTLADGVPSRFSGSGSGTQYSLKINSLQPEDFGSYYCQHFWSTPRTFGGGTKLEIKRTVAAPSVFIFPPSDEQLKSGTASVVCLLNNFYPREAKVQWKVDNALQSGNSQESVTEQDSKDSTYSLSSTLTLSKADYEKHKVYACEVTHQGLSSPVTKSFNRGEC
notes: also called F17-33-296AA/HelD1.3; F17-33-296AA/HELD1.3
In the case of B6, the “DO11.10 T cell activation assay EC50” value in assay [1] stood at 1.12 nM. Further, the Kd worked out at 2.7 nM in assay [2] and 2 nM in assay [3].
